From US6750057

Assays:
MBP-XB3 = tested on: T1, MBP-XB3
T1 sequence: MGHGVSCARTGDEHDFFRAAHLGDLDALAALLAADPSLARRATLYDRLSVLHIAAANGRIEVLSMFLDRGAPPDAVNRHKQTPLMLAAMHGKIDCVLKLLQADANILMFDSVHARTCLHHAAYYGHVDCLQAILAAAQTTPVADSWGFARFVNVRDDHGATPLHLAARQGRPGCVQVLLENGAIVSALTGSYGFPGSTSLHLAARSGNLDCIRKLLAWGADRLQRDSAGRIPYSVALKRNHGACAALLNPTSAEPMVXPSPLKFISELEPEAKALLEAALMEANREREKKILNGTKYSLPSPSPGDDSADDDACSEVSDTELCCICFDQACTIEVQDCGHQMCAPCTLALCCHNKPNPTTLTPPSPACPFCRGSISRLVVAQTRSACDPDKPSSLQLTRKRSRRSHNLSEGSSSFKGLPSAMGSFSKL

GST-XA21
transphosphorylation assay with [gamma-32P]ATP (MBP-XB3): GST-XA21 phosphorylated itself and MBP-XB3, but not MBP alone
transphosphorylation assay with [gamma-32P]ATP (Native MBP [MBP: P0AEX9]): GST-XA21 phosphorylated itself and MBP-XB3, but not MBP alone
